Data on 10 molecules can be found in article PMC8967717 (Nature, 2022).

Test [1] concerns the target T1, SARS-CoV-2 wild-type spike receptor-binding domain (SARS-CoV-2, WT (MN908947), UniProt P0DTC2). The experiment in a line: BLI. Conditions: both partners purified.
Test [2] has as its target SARS-CoV-2 wild-type spike N-terminal domain (SARS-CoV-2, WT (MN908947), UniProt P0DTC2). The test can be described thus: ELISA. The conditions noted are these: both partners purified. (In general: ELISA stands for enzyme-linked immunosorbent assay.)
Test [3] deals with T1, SARS-CoV-2 wild-type spike ….
In test [4] the target is SARS-CoV-2 wild-type spike (S) protein (SARS-CoV-2, WT (MN908947), UniProt P0DTC2).

B1: XGv289 (antibody, V domains shown)
VH: QVQLVQSGAEVKKPGASLKVSCRASGYTFTSHFIHWVRQAPGQGLEWMGIINPSGGASYAQNFRDRVTMTTDPSTSTVYMELGSLRSEDTAVYYCARAEGSSWLGWFDPWGQGTLVTVSS
VL: QSVLTQPPSASGTPGQRVTIPCSGSSSNIGNNYVYWYQQLPGTAPKLLVYGNNQRPSGVPDRFSVSKSGTSASLAISGLRSEDEADYYCAAWDDGLSGSGWVFGGGTKLTVL
As usually defined, the Kd is the free concentration of one partner at which half of the binding sites on the other are occupied at equilibrium, for simple one-to-one binding. A low value points to tighter binding. For the molecule B1, binding in test [1] was characterised by a dissociation constant (Kd) of 0.515 nM. In addition, the binding result in test [2] was “no binding”.

B2: XGv420 (antibody, V domains shown)
VH: QVQLQESGPGLVKPSGTLSLTCAVSGGSINSNNWWSWVRQPPGKGLEWIGEIYHNGNTNYNPSLKSRVTISVDTSKNQFSLRLSSVTAADTAVYYCARGDSLDWFDPWGQGTLVTVSS
VL: QSALTQPASVSGSPGQSITISCTGTSSDVGSYNYVSWYQQLPGKAPKLMIYDVSNRPSGVSNRFSGSKSGNTASLTISGLQAEDEADYYCSSYTSSSTLVFGTGTKVTVL
In the case of B2, the binding result in test [3] and in test [4] was “binds” in each case.

B3: XGv347 (antibody, V domains shown)
VH: QMQLVQSGPEVKKPGTSVKVSCKASGFTFTDVSSLQWVRQARGQRLEWIGWTVVGTGNTNYAPRFQERVTITTDKSTSTAYMELSSLRSEDTAVYYCAAPFCSETSCSDGFDLWGQGTKVTVSS
VL: EIVLTQSPGTLSLSPGDRATLSCRASQSVRISYLAWYQQKPGQAPRLLISGSSSRATGIPDRFSASGSGTDFALTISRLEPEDFAVYYCQQYDNSPWTFGQGTKVEVK
On to B3, for which binding in test [1] was characterised by a dissociation constant (Kd) of 0.0814 nM. Moreover, the binding result in test [2] was “no binding”.

B4: XGv282 (antibody, V domains shown)
VH: QVQLVQSGAEVKKPGSSVKVSCKASGDTFSSYTFSWVRQAPGQGLEWMGRSIPIVGKAIYAQEFQGRVTISADRSTTTVYMELSSLRSDDTAVYYCARDQSGFDFFYYDHWGQGTLVAVSS
VL: QSVLTQPPSASGTPGQRVTISCSGSGSNIGSNTINWYQQLPGTAPKVLIYRNNERPSGVPDRFSGSKSGTSASLTISGLQSEDEAYYHCAAWDDSLNGPVFGGGTKLTVL
On to B4, for which the Kd in test [1] amounted to 0.344 nM. For the same molecule, in test [2], the binding result is recorded as “no binding”.

B5: XGv345 (antibody, V domains shown)
VH: QVQLQESGPGLVKPSQTLSLTCTVSGGSIRSGSYYWSWIRQPAGKGLEWIGRVYTSGSTNYNPSLKTRVTISLETSKNHFSLKLSSVTAADTAVYYCARGEWEEDFALWGRGTLVTVSS
VL: DIQMTQSPSSLSASVGDRVTITCRASQSIASHLNWYQQKPGKAPKLLIYGASTLQSGVPSRFSGSGSGTAFTLTISSVQPEDFATYYCQQSYSAITFGQGTRLEIK
For B5, the binding result in test [3] and in test [4] was “binds” each time.

B6: XGv304 (antibody, V domains shown)
VH: EVQLVESGGGLIQPGGSLRLSCEASEITVSSNYMRWVRQAPGKGLEWVSLIYAGGSTFYADSVKGRFTISRDNSKNTLYLQMNSLRVEDTAVYYCARDLMVYGMDVWGQGTTVTVSS
VL: DIQLTQSPSSLSASVGDRVTITCRASQGISSYLAWYQQKPGKAPNLLIYGASTLQSGVPSRFSGSGSGTDFTLTISSLQPEDFATYYCQHLNSDPLTFGGGTKVEIK
Consider B6, for which the binding result in test [3] and in test [4] was “binds” each time.

B7: XGv265 (antibody, V domains shown)
VH: QITLKESGPTLVKPTQTLTLTCNFSGFSLNTYGVGVGWIRQPPGKALEWLALIYWDGDERYGPFFKNKVTIAKDTSKNQVVLTMTNMDPVDTATYYCARHLIPTIFDYWGQGTLVTVSS
VL: QSALTQPASVSGSPGQSITISCTGTSSDVGGSNYVSWYQHHPDRAPKLLIYEVTNRPSGVSNRFSGSKSANTASLTISGLQAEDEADYYCSSYTTTSTHILFGGGTKLTV
The molecule B7 registered an equilibrium dissociation constant (Kd) in test [1] of 0.59 nM. This counts as sub-nanomolar.

B8: XGv338 (antibody, V domains shown)
VH: EVQLVESGGGLVQPGGSLRLSCAASGFPFITYWMSWVRQTPGKGLEWVANIKEDGSEKNYVDSVKGRFTVSRDNAENSLYLRMNSLRIEDTAVYYCAREIRRTIPTSGMDVWGQGTTVTVSS
VL: SYELTQPPSVSVSPGQTARITCTGDALPKQYAYWYQQKPGQAPVLIISKDNERASGIPERISGSRSGTTVTLTISGVQAEDEADYYCQSADSSASYSYVFGTGTKVTVL
Regarding B8, the binding result in test [3] and in test [4] was “binds” in each case.

B9: XGv402 (antibody, V domains shown)
VH: QVQLVESGGGVVQPGRSLRLSCAASGFTFNNYAMHWVRQAPGKGLEWVAVISYDGSNEFYLDSVKGRFAISRDNSKNTLYLQTNSLRGEDTAVYYCARESRRGADYWGQGTLVTVSS
VL: DIQMTQSPSSLSASVGDRVTITCRASQIISNYLNWYQQKPGKAPKLLIYAASSLQSGVPSRFSGSGSGTDFTLTISSLQPEDSATYYCQQSFSPLWTFGPGTKVEIK
Consider B9, for which the binding result in test [3] and in test [4] was “binds” in each case.

B10: XGv387 (antibody, V domains shown)
VH: EVQLVESGGGLIQPGGSLRLSCAASGVIVSSNYMSWVRQAPGKGLEWVSVMYSGGSTFYADSVKGRFTISRDNSKNTLYLQMNRLRAEDTAVYFCARGDGGSYLGGAFDIWGQGTMVTVSS
VL: DIQMTQSPSSLSASVGDRVTLTCRASQSISTYLNWYQQKPGKAPKLLIYAASSLQSGVPSRFSGSGSGTDFTLTINSLQPEDFATYYCQQSYSLPALTFGGGTKVEIK
B10: the binding result in test [3] and in test [4] was “binds” in each case.
